From publication PMC4064709, “Acceleration of an aldo-keto reductase by minimal loop engineering” (Protein Engineering, Design and Selection, 2014)

What was measured:
Assay in all cases: initial rates of NADH-dependent reduction
Assay type in all cases: biochemical, Yamadazyma tenuis
[1] = test system: T1, CC(=O)c1ccc(Cl)cc1Cl; details: apparent; 300 µM NADH; max 5 mM; W23 and K24 replaced by pentapeptide FAPRE
T1 construct: full-length enzyme; redesigned CtXR expressed in E. coli BL21 (DE3), purified by dye ligand chromatography
Source text: (§1) initial rates of NADH-dependent reduction on Candida tenuis xylose reductase (CtXR)

[2] = test system: T2, CC(=O)c1ccccc1Cl; details: apparent; 300 µM NADH; max 10 mM; W23 and K24 replaced by pentapeptide FAPRE
T2 construct: full-length enzyme; redesigned CtXR expressed in E. coli BL21 (DE3), purified by dye ligand chromatography
Source text: as §1

[3] = test system: T3, CCOC(=O)C(=O)c1ccc(C#N)cc1; details: apparent; 300 µM NADH; max 10 mM; W23 and K24 replaced by pentapeptide FAPRE
T3 construct: full-length enzyme; redesigned CtXR expressed in E. coli BL21 (DE3), purified by dye ligand chromatography
Source text: as §1

[4] = test system: T4, NC(=O)C1=CN([C@@H]2O[C@H](COP(=O)(O)OP(=O)(O)OC[C@H]3O[C@@H](n4cnc5c(N)ncnc54)[C@H](O)[C@@H]3O)[C@@H](O)[C@H]2O)C=CC1; details: apparent; co-substrate 2′-chloroacetophenone (max 10 mM), as in the wild-type row; W23 and K24 replaced by pentapeptide FAPRE; varied: cofactor
T4 construct: full-length enzyme; redesigned CtXR expressed in E. coli BL21 (DE3), purified by dye ligand chromatography
Source text: as §1

[5] = substrate: CC(=O)c1ccc(Cl)cc1Cl; details: apparent; 300 µM NADH; incomplete substrate saturation (max 5 mM)
Source text: as §1

[6] = substrate: CC(=O)c1ccccc1Cl; details: apparent; 300 µM NADH; incomplete substrate saturation (max 10 mM)
Source text: as §1

[7] = substrate: CCOC(=O)C(=O)c1ccc(C#N)cc1; details: apparent; 300 µM NADH; incomplete substrate saturation (max 10 mM)
Source text: as §1

[8] = substrate: NC(=O)C1=CN([C@@H]2O[C@H](COP(=O)(O)OP(=O)(O)OC[C@H]3O[C@@H](n4cnc5c(N)ncnc54)[C@H](O)[C@@H]3O)[C@@H](O)[C@H]2O)C=CC1; details: apparent; co-substrate 2′-chloroacetophenone (max 10 mM); varied: cofactor
Source text: as §1

Molecule	Km [1] [mM]	kcat [1] [s⁻¹]	Km [2] [mM]	kcat [2] [s⁻¹]	kcat/Km [2] [M⁻¹ s⁻¹]	Km [3] [mM]	kcat [3] [s⁻¹]	Km [4] [mM]	kcat [4] [s⁻¹]	kcat/Km [4] [M⁻¹ s⁻¹]	Km [5] [mM]	kcat [5] [s⁻¹]	Km [6] [mM]	Km [7] [mM]	kcat [7] [s⁻¹]	kcat/Km [7] [M⁻¹ s⁻¹]	Km [8] [mM]	kcat [8] [s⁻¹]	kcat/Km [8] [M⁻¹ s⁻¹]
Candida tenuis xylose reductase (CtXR) (Yamadazyma tenuis; INS25PRE/K25A/W24F)	4 ± 1	2.0 ± 0.4	5 ± 2	1.0 ± 0.2	370 ± 50	4 ± 1	17 ± 2	0.07 ± 0.02	1.0 ± 0.2	7600 ± 500									
Candida tenuis xylose reductase (CtXR) (Yamadazyma tenuis) (protein, full-length enzyme; redesigned CtXR expressed in E. coli BL21 (DE3), purified by dye ligand chromatography) MSASIPDIKLSSGHLMPSIGFGCWKLANATAGEQVYQAIKAGYRLFDGAEDYGNEKEVGDGVKRAIDEGLVKREEIFLTSKLWNNYHDPKNVETALNKTLADLKVDYVDLFLIHFPIAFKFVPIEEKYPPGFYCGDGNNFVYEDVPILETWKALEKLVAAGKIKSIGVSNFPGALLLDLLRGATIKPAVLQVEHHPYLQQPKLIEFAQKAGVTITAYSSFGPQSFVEMNQGRALNTPTLFAHDTIKAIAAKYNKTPAEVLLRWAAQRGIAVIPKSNLPERLVQNRSFNTFDLTKEDFEEIAKLDIGLRFNDPWDWDNIPIFV											6 ± 2	2.7 ± 0.3	13 ± 4	5 ± 2	0.4 ± 0.06	100 ± 10	0.11 ± 0.025	0.8 ± 0.1	8700 ± 400
